# Earlier results in paper PMC12748512.
# Like-named read-outs stand apart in the source and are kept apart here.
# Key:
# [1] = molecular target: IL-2Rβ-γc complex (Homo sapiens) (UniProt P14784)
# [2] = molecular target: IL-2Rβ-γc complex (Homo sapiens) (UniProt P14784); remark: listed apart in the source
# Chain of UniProt P14784 (P14784 27-240, chain 1 of 2): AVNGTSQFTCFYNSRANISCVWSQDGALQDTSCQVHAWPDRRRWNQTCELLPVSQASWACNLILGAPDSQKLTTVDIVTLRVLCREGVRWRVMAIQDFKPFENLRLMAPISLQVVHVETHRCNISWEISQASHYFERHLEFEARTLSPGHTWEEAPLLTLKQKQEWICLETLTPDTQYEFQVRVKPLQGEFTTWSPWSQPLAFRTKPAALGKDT
# Chain of UniProt P14784 (P31785 23-262, chain 2 of 2, further chain): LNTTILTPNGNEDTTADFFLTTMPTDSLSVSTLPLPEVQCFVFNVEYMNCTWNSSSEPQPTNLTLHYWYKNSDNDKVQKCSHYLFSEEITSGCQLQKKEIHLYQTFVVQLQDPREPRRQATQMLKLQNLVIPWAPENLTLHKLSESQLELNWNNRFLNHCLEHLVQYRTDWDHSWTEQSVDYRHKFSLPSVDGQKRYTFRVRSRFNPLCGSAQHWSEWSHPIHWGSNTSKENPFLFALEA
Substance,Kd [1],Kd [2]
IL-2 (from UniProt P60568),1 nM,–
IL-15 (from UniProt P40933),–,1 nM
